Results published in patent US20070161078A1.

What was measured:
[1] = molecular target: MBP.NS1 H5N1B (ESEV) (influenza A H5N1) (UniProt Q6DP28); assay: G assay titration
[2] = molecular target: MBP.NS1 H5N1B (ESEV) (influenza A H5N1) (UniProt Q6DP28); assay: direct binding assay titration

Substance	EC50 [1] [µg/mL]	EC50 [2] [µg/mL]
INADL d8 (from UniProt Q8NI35 1431-1525)	1.8	6.1
MAST2 d1 (from UniProt Q6P0Q8 1098-1197)	0.9	
Magi3 d1 (from UniProt Q5TCQ9 18-106)	0.9	5
NeDLG d1,2 (from UniProt Q92796 124-316)	0.2	0.8
